# Biological target: FLAG-SF2/ASF purified (human, UniProt Q07955 1-248)
# Assay: EMSA
# Settings: protein: recombinant; tags: FLAG; label: IRDye-800
# Chain of FLAG-SF2/ASF purified (Q07955 whole entry): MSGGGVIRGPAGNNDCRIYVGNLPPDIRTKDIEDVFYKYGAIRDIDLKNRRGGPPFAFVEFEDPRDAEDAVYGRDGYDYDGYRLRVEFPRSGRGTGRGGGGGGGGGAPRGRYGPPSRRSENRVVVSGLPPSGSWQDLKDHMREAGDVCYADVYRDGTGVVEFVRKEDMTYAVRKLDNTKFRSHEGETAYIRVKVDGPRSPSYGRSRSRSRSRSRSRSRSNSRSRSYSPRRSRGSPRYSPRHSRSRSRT
binder,measurement,value
"GACAUACUGACAAGGAUGUC (ssRNA) [H7N9-NS-529-548 (NEP-ESE, 540A, WT)]",binding result,binds

# — article PMC5364394
